The text below walks through data of patent US20230250157A1 (CALIFORNIA INSTITUTE OF TECHNOLOGY, published 2023).

This assay has as its target SARS-CoV-2 WA1 D614G spike on pseudovirus (SARS-CoV-2 WA1, UniProt P0DTC2 14-1252). Nature of the assay: cell-based or functional assay.

B1: M8a-3 (antibody, V domains shown)
VH: QVQLQQPGAELVLPGASVKLSCKASGYTFTNYWMHWVKQRPGHGLEWIGEIDPFDTYIKINQKFKGKSTLTVDTSSSTAYMQLSSLTSEDSAVYYCARPDSSGYPVYFDYWGQGTTLTVSS
VL: DIVMTQSHKFMSTSVGDRVSITCKASQDVGTYIAWYQQKPGQSPKLLIYWASTRHTGVPDRFTGSGSGTNYTLTISSVQAEDLALYHCQQHYSTPYTFGGGTKLEIK
With B1, the “pseudovirus neutralization IC50” value stood at 0.18 µg/mL.
